The results in this text go back to patent US20240025993A1 (Novartis, published 2024).

The test addresses T1, human CD19 (human, UniProt P15391 20-556).
T1 construct: whole, on cells; also called huCD19; hCD19
T1 sequence (looked up): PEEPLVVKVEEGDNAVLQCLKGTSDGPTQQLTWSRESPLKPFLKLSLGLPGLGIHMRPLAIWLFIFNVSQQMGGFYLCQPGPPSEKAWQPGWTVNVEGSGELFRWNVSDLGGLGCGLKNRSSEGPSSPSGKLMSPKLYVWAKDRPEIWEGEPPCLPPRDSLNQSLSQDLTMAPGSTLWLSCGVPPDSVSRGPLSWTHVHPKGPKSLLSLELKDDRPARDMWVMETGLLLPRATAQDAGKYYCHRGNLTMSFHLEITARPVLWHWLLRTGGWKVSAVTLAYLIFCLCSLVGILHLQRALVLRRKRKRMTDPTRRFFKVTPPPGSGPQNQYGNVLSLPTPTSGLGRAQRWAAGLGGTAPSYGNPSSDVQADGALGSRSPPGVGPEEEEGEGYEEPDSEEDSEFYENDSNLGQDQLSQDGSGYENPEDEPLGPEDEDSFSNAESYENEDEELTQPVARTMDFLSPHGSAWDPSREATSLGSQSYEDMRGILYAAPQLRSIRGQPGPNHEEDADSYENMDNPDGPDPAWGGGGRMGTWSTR
Kind of test: summary sentence of the examples; no method at this place.

B1: NEG258 (antibody, V domains shown)
VH: QVQLVQSGAEVKKPGASVKVSCKASGYTFTTYWIQWVRQAPGQRLEWMGAVYPGDADTRYTQKFQGRVTLTADRSASTAYMELSSLRSEDTAVYYCGRDAGLEYYALDYWGQGTLVTVSS
VL: EIVMTQSPATLSVSPGERATLSCRASQDVGTAVAWYQQKPGQAPRLLIYWASTRHTGIPARFSGSGSGTEFTLTISSLQSEDFAVYFCQQYANFPLYTFGQGTKLEIK
notes: also called CD19 antibody NEG258; anti-CD19 antibody NEG258
Take B1: the binding result was “binds”.

B2: NEG218 (antibody, V domains shown)
VH: EVQLVQSGAEVKKPGESLKISCKASGYSFTNYWMNWVRQMPGKGLEWMGMIHPSDSEIRLNQKFQGQVTLSVDKSIGTAYMQWSSLKASDTAMYYCSRWYYLSSPMDYWGQGTTVTVSS
VL: EIVMTQSPATLSVSPGERATLSCRASQDVGTAVAWYQQKPGQAPRLLIYWASTRHTGIPARFSGSGSGTEFTLTISSLQSEDFAVYFCQQYSSYPYTFGQGTKLEIK
notes: also called CD19 antibody NEG218; anti-CD19 antibody NEG218
B2: the binding result is on record as “binds”.
